In the data set the test system is MS2 coat protein. Nature of the data set: apparent KD of MS2 coat protein; designed switch direction (-1 OFF switch, 1 ON switch): 1; higher = weaker reporter binding. The procedure, abridged: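 Normalised cluster fluorescence was curve-fitted, and each design's median over clusters is its apparent KD. Before this, SNAP-549-labelled MS2 coat protein was titrated from 0.7 or 1.5 nM, doubling to 3 µM, over RNA switches transcribed on Illumina chips by stalled E. coli RNA polymerase. Titrations had no input, 200 uM small-molecule ligand, or an oligonucleotide input, and steps lasted 0.8–1.5 h (lowest) to 10–20 min (highest).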

Where [1] appears, read: input ligand: microRNA oligo, concentration not stated.
Where [2] appears, read: Eterna round: R95, input ligand: FMN 200 uM.
[3] abbreviates: Eterna round: R95, input ligand: microRNA oligo, concentration not stated.
The mark [4] stands for this setting: Eterna round: R95, input ligand: none.

Regarding “GCGUUUAACGUAGGAUAUCGACCUACAUGAGGAUCACCCAUGUCUUUGUAAAGUUUUUUUAAUUACGAGAAGGACGUUUUGCAU [JR_SSNG2_Sub071] (Eterna round: R96, puzzle: Same State NG 2)”, the “apparent KD of MS2 coat protein” value (input ligand: FMN 200 uM) was 0.0403 µM, the “apparent KD of MS2 coat protein” value under setting [1] is 0.0896 µM and the “apparent KD of MS2 coat protein” value (input ligand: none) stood at 0.107 µM.

With “GAGUUACAUGAGGAUCACCCAUGUUGUUUUGGAUAAGGAUAUAUGGUAGGAAGAGGAAUGAUAGAAGGUAUUAGGG [JR_SS1_Sub063] (Eterna round: R96, puzzle: Same State 1)”, the “apparent KD of MS2 coat protein” value by setting is: (input ligand: FMN 200 uM) 0.0416 µM; under setting [1], 0.0268 µM; (input ligand: none) 0.0353 µM.

Turning to “UGGCCAGCCUGUGCUGGGCUUUUGCAUGUACAUGAGGAUCACCCAUGUCGUGUUCAUGCUUUUUGCUCGUCUUUAAA [Photon Torp-03] (puzzle: Sensor for hsa-mir-208a)”, the “apparent KD of MS2 coat protein” value came out at 0.0495 µM under setting [2], 0.0163 µM under setting [3] and 0.0558 µM under setting [4].

For “GGGCCAGCUUGUGCUGGGCCUUCGCUUGCACAUGAGGAUCACCCAUGUCGUGUACAUGCUUGGUGCCCGUCUUUCCC [Photon Torp-15] (puzzle: Sensor for hsa-mir-208a)”, the “apparent KD of MS2 coat protein” value by setting is: under setting [2], 0.182 µM; under setting [3], 0.0492 µM; under setting [4], 0.201 µM.

In the case of “UUACUCAUGUAAGGAUAUGCAGCCGUUUCGGCUGCAGAAGGUACUAUAAUACAUGAGGAUCACCCAUGUCUUUUUAAUUUUGAC [JL SSNG1 1.27] (Eterna round: R96, puzzle: Same State NG 1)”, the “apparent KD of MS2 coat protein” value is 0.0793 µM (input ligand: FMN 200 uM), 0.0345 µM under setting [1] and 0.0392 µM (input ligand: none).

Consider “GAGGAUGAUUUACAGGAUAUAUAGCAGAUGACAUGAGGAUCACCCAUGUAAGAGAAAGGAGGGAGAUAGAAGGGUAUGGGAGGUG [JR_SS2_Sub038] (puzzle: Same State 2)”, for which the “apparent KD of MS2 coat protein” value under setting [2] turned out to be 0.0293 µM, the “apparent KD of MS2 coat protein” value under setting [3] was found to be 0.0354 µM and the “apparent KD of MS2 coat protein” value under setting [4] came to 0.0435 µM.

Regarding “UCUCGGCACGCAGGAUAUCCCGCUUCCUGGUGAGGAGAAGGGUGGUCGGGAAAACAUGAGGAUCACCCAUGUAAAAGUAAGAGG [Usdidige] (Eterna round: R96, puzzle: Same State NG 1)”, the “apparent KD of MS2 coat protein” value turned out to be 0.0416 µM (input ligand: FMN 200 uM), 0.0613 µM under setting [1] and 0.183 µM (input ligand: none).

For “AUUAUUAAUGCAGGAUAUGAAUAACAUGAGGAUCACCCAUGUGGUGUUGUGAGUAAGGAGAGAGAUCAGAAGGGCAUUUUUUUU [JMF's solution 4] (Eterna round: R96, puzzle: Same State NG 2)”, the “apparent KD of MS2 coat protein” value stood at 0.349 µM (input ligand: FMN 200 uM), 0.225 µM under setting [1] and 0.258 µM (input ligand: none).

With “ACAUGAAAUAGAGGAUAUUUUGUACCUACAUGUGACAUGAGGAUCACCCAUGUGGUAAGUAUGAGAAAGAAGGCUAAGAUAUGU [Equivalence 12 - Jieux - Same State NG 2] (Eterna round: R96, puzzle: Same State NG 2)”, the “apparent KD of MS2 coat protein” value came to 0.0186 µM (input ligand: FMN 200 uM), 0.0303 µM under setting [1] and 0.0486 µM (input ligand: none).

With “CGUUCUUACUCAGGACGGAGAGUAGAGGAACAUGAGGAUCACCCAUGUAUGAGCUUUUUGCUCGUGAUUAACAGUAG [JR_SHM208a_Sub013] (puzzle: Sensor for hsa-mir-208a)”, the “apparent KD of MS2 coat protein” value worked out at 0.0627 µM under setting [2], 0.0954 µM under setting [3] and 0.122 µM under setting [4].

Turning to “GUAGCAUACCGAGGAUAUUCAUAUAACAUGAGGAUCACCCAUGUAAGGCCACAUUAGUGGCCUUGGGAGAAGGCGGAAUGCUAC [Xeonanis - 20 Mod41] (Eterna round: R96, puzzle: Same State NG 2)”, the “apparent KD of MS2 coat protein” value (input ligand: FMN 200 uM) is 0.0117 µM, the “apparent KD of MS2 coat protein” value under setting [1] stood at 0.0635 µM and the “apparent KD of MS2 coat protein” value (input ligand: none) came out at 0.0771 µM.

Consider “GGAGCCGGCACUGAGGAUAUUCAUAAUAAAACAUGAGGAUCACCCAUGUAGGCCAGAAGGCCUUGGGAGAAGGCAGGUCGGCUCG [Mat - Same State 2 - Mod of UCT - D65] (puzzle: Same State 2)”, for which the “apparent KD of MS2 coat protein” value by setting is: under setting [2], 0.0167 µM; under setting [3], 0.138 µM; under setting [4], 0.185 µM.

As to “GAGUGGUGGAGAGGAUAUACAUUGUUAUUCACUGUAGAAGGUUCUAACAUGAGGAUCACCCAUGUAGGACUAUUCCUGAGAGUU [Parity 55 - Jieux - Same State NG 1] (Eterna round: R96, puzzle: Same State NG 1)”, the “apparent KD of MS2 coat protein” value was found to be 0.0131 µM (input ligand: FMN 200 uM), 0.0109 µM under setting [1] and 0.0142 µM (input ligand: none).

“UGUUGUAUUACAGGAUAUCUAGUAAUUUUAUUUAGAGAAGGGUAUUCACAUGAGGAUCACCCAUGUAUAUACGAGGAAGUUGUG [JMF's solution 35] (Eterna round: R96, puzzle: Same State NG 1)”: the “apparent KD of MS2 coat protein” value under setting [1] worked out at 0.0278 µM.

Consider “AGUGCAGCCUGAGCUGCACAAAAGCAUGUACAUGAGGAUCACCCAUGUCAUGUACAAGCUUUUUGCUCGUCUUAAAA [Mat - hsa-mir-208a - Mod of JL - D20] (puzzle: Sensor for hsa-mir-208a)”, for which the “apparent KD of MS2 coat protein” value came out at 0.529 µM under setting [2], 0.0154 µM under setting [3] and 0.688 µM under setting [4].

Consider “AUAAAACAUGAGGAUCACCCAUGUAAAAAUAUGGGAGGAUAUGCGAAAUAAAAUAAAUAAGCAGAAGGCCUAAAAA [SS! MT 19] (Eterna round: R96, puzzle: Same State 1)”, for which the “apparent KD of MS2 coat protein” value is 0.0211 µM (input ligand: FMN 200 uM), 0.0528 µM under setting [1] and 0.0627 µM (input ligand: none).

As for “UUGGUACAUGAGGAUCACCCAUGUGGGUCGGUCGCAGGAUAUGCCCGUGGGCGCUUGCGGGCAGAAGGGUGCCGUA [Same State1-X] (Eterna round: R96, puzzle: Same State 1)”, the “apparent KD of MS2 coat protein” value is, setting by setting: (input ligand: FMN 200 uM) 0.173 µM; under setting [1], 0.386 µM; (input ligand: none) 1 µM.

Take “AUAAAACAUGAGGAUCACCCAUGUCUACAAAGUCGAGGAUAUGGGCAAAUAAAAUAAGAACCAGAAGGCGAAUAAU [salish99_ss1_r3_044] (puzzle: Same State 1)”: the “apparent KD of MS2 coat protein” value runs as follows: under setting [2], 0.0626 µM; under setting [3], 0.223 µM; under setting [4], 0.275 µM.

With “AUGUGGAAGCCACAGGAUAUACUAGGGUACACAUGAGGAUCACCCAUGUGCGGCUAAAAGUGCUAGUAGAAGGGUGGUAAAGAAA [Diartire] (puzzle: Same State 2)”, the “apparent KD of MS2 coat protein” value by setting is: under setting [2], 0.0138 µM; under setting [3], 0.0125 µM; under setting [4], 0.015 µM.

In the case of “ACAUGAGAGAUAGGAUAUCGUGUACCUACAUGUGACAUGAGGAUCACCCAUGUGGUAAGUAUGAGCGAGAAGGAUCAGAUAUGU [Equivalence 50 - Jieux - Same State NG 2] (Eterna round: R96, puzzle: Same State NG 2)”, the “apparent KD of MS2 coat protein” value (input ligand: FMN 200 uM) stood at 0.0246 µM, the “apparent KD of MS2 coat protein” value under setting [1] turned out to be 0.0431 µM and the “apparent KD of MS2 coat protein” value (input ligand: none) turned out to be 0.0784 µM.

As for “UUGAAGAAUUAAGGAUAUUGAGUACAUAUGUAAAACAUGAGGAUCACCCAUGUGGGUUGCGGUAUCGAGAAGGUAAAAUAAUAG [Mat - same State NG 2 - JL mod - D71] (Eterna round: R96, puzzle: Same State NG 2)”, the “apparent KD of MS2 coat protein” value was found to be 0.0745 µM (input ligand: FMN 200 uM), 0.0796 µM under setting [1] and 0.0816 µM (input ligand: none).

For “GUUAAACAUGAGGAUCACCCAUGUAAUAAUAUGGGAGGAUAUCAGAAAUUAUGUAUGAAAUGAGAAGGCCUAAUUG [Mat - Same State 1 - Mod of Eli - D79] (puzzle: Same State 1)”, the “apparent KD of MS2 coat protein” value turned out to be 0.0898 µM under setting [2], 0.244 µM under setting [3] and 0.198 µM under setting [4].

“UUCUCUCUGGUAGGAUAUGUAGGAUAUGUACAUGAGGAUCACCCAUGUCAGUUAAUGACAGAAGGAUAGAAGGACCAGAUCUCU [pwkr ssNG2 2FMN 1F5s.2] (Eterna round: R96, puzzle: Same State NG 2)”: the “apparent KD of MS2 coat protein” value (input ligand: FMN 200 uM) worked out at 0.115 µM, the “apparent KD of MS2 coat protein” value under setting [1] turned out to be 0.0724 µM and the “apparent KD of MS2 coat protein” value (input ligand: none) stood at 0.127 µM.

Consider “CUCCCUUGGGUAGGAUAUCUAGGAUAUGGGAAAGACUAAGUCUGUAGGUCACCUAACCCAGAUGGAGAGAAGGACCCAACACUC [pwkr ssNG2 2FMN + F9.39] (Eterna round: R96, puzzle: Same State NG 2)”, for which the “apparent KD of MS2 coat protein” value runs as follows: (input ligand: FMN 200 uM) 0.00366 µM; under setting [1], 0.0333 µM; (input ligand: none) 0.0158 µM.

Turning to “GGUGUACAUGAGGAUCACCCAUGUCGACCGCUCACAGGAUAUUUAAUACAAACUGGUAGCGGAGAAGGGUGAGGAA [Oresbeve] (puzzle: Same State 1)”, the “apparent KD of MS2 coat protein” value under setting [2] stood at 0.164 µM, the “apparent KD of MS2 coat protein” value under setting [3] was found to be 0.0957 µM and the “apparent KD of MS2 coat protein” value under setting [4] came to 0.247 µM.

As for “GGUGGGUUGCUACCGGCACAUGAGGAUCACCCAUGUUUUGGGAAGGAUAUGGUACCUAUUUGGUACCAGAAGGUCCCGUUGGUG [salish99_SSNG3_r04_708] (Eterna round: R96, puzzle: Same State NG 3)”, the “apparent KD of MS2 coat protein” value under setting [1] came to 0.176 µM.

Regarding “AACCGCGCAGAUGCGCGACAUGAGGAUCACCCAUGUGGCACACAGGAUAUCCUGAACAGCUAUUAGGAGAAGGGUGAAGGCCUC [Oredceti] (Eterna round: R96, puzzle: Same State NG 3)”, the “apparent KD of MS2 coat protein” value by setting is: (input ligand: FMN 200 uM) 0.339 µM; under setting [1], 0.0451 µM; (input ligand: none) 0.127 µM.

These data come from the supplement of paper PMC9170038.
